Article PMC5724578 (Biochemistry, 2017)

Assay: Stability of EVH1 mutant in aqueous solution
Assay type: physicochemical

B1: EVH1 Y39E: phosphomimetic Y39E mutant of human VASP EVH1 domain (protein)
chain: GPGGRMSSETVICSSRATVMLYDDGNKRWLPAGTGPQAFSRVQIEHNPTANSFRVVGRKMQPDQQVVINCAIVRGVKYNQATPNFHQWRDARQVWGLNFGSKEDAAQFAAGMASALEALEG
modifications: left off: His tag, end not stated, cleaved
- stability in aqueous solution: stable in aqueous solution
